{"source": "patent US20220259330A1", "about": "(SUNSHINE GUOJIAN PHARMACEUTICAL SHANGHAI, published 2022)", "key": {"LAG3-ECD-His [1]": {"molecular_target": "T1, LAG3-ECD-His (human, UniProt P18627 23-450)", "T1 construct": "extracellular domain; Bought; not shown: polyhistidine tag", "T1 sequence (looked up)": "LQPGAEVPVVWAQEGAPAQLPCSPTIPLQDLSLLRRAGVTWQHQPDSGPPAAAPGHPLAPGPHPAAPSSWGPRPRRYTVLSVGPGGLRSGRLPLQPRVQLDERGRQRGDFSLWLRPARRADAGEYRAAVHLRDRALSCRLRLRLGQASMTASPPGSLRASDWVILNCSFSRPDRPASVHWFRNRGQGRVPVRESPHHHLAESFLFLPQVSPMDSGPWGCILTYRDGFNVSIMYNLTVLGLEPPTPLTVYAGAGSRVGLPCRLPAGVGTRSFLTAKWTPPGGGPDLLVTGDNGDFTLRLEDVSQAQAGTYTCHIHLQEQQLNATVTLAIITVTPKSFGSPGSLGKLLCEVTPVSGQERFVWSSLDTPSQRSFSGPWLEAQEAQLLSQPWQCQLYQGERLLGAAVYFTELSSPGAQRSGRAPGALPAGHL", "test": "ELISA, plate coated with LAG3-ECD-His"}, "LAG3-ECD-His [2]": {"molecular_target": "T1, LAG3-ECD-His", "test": "ELISA, LAG3-ECD-His coated"}, "PD1-His [3]": {"molecular_target": "T2, PD1-His (human, UniProt Q15116 25-170)", "T2 construct": "extracellular domain; In-house protein; also called extracellular domain protein of human PD-1 with a 6*His tag", "T2 sequence (Q15116 other isoform, or with tags, fused parts or gaps)": "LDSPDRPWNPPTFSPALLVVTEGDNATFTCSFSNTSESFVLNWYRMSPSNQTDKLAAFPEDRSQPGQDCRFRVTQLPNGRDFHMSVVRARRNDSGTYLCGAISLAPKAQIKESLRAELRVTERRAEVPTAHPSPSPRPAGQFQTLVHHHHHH", "test": "ELISA, plate coated with PD1-His"}, "PD1-His [4]": {"molecular_target": "T2, PD1-His", "test": "SPR, Biacore 8K, antibody captured on Protein A/G chip, PD1-His injected"}, "[5]": {"molecular_target": "T3, recombinant VEGF165 (Acrobiosystems, Cat. No. VE5-H4210) (UniProt P15692-4 27-191)", "T3 construct": "Bought; construct not described", "T3 sequence (P15692 other isoform, or with tags, fused parts or gaps)": "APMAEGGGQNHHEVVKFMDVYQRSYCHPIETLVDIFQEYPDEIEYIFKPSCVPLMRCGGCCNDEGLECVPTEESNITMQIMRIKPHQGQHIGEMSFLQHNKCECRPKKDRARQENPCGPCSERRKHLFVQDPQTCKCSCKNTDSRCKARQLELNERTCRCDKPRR", "test": "bridging ELISA: VEGF165 coated, antibody titrated, biotinylated human PD-1 at 200 ng/ml and streptavidin-HRP for detection"}, "[6]": {"molecular_target": "T4, TGF-β1 (Sino Biological, Cat. No. 10804-HNAC) (UniProt P01137 279-390)", "T4 sequence (P01137 279-390 limits assumed)": "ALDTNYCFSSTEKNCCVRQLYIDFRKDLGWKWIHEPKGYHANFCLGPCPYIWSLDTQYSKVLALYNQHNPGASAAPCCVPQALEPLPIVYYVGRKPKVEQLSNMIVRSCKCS", "test": "bridging ELISA: TGF-β1 coated, antibody titrated, biotinylated human PD-1 and streptavidin-HRP for detection"}, "[7]": {"molecular_target": "T4, TGF-β1 (Sino Biological, Cat. No. …)", "test": "ELISA, plate coated with TGF-β1"}, "[8]": {"molecular_target": "T5, biotinylated human PD-1 extracellular recombinant protein (Sino Biological, Cat. No. 10377-H08H-B) (human, UniProt Q15116 25-170, biotinylated)", "T5 construct": "extracellular domain; Bought; detection reagent in the bridging ELISAs", "T5 sequence (Q15116 25-170)": "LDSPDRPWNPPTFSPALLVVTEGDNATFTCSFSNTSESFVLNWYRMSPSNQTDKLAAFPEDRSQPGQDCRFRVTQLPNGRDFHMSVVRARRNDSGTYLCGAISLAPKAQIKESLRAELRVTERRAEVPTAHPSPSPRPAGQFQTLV", "test": "bridging ELISA: TGF-β1 coated, antibody titrated, biotinylated human PD-1 and streptavidin-HRP for detection"}, "[9]": {"molecular_target": "T5, biotinylated human PD-1 extracellular …", "test": "bridging ELISA: plate coated with TGF-β1, antibody titrated, detected with biotinylated human PD-1 ECD and Streptavidin-HRP; antibody first captured on plate-coated TGF-β1"}}, "note": "Where “and” joins values, the source holds several entries; their conditions need not be identical. Equal entries are not always repeated.", "data": [{"binder": "5E7-Hu (antibody, human IgG4 S228P, kappa, V domains shown, Humanized anti-human LAG-3, IgG4 (S228P), kappa; also called 5E7-Hu-HC+5E7-Hu-LC) VH: EVQLVESGGGLVKPGGSLRLSCAASGFTFSDDYMAWFRQAPGKRLEWVASISHGGDYIYYADNLKGRFTISRDNAKNSLYLQMNSLRAEDTAVYFCSRDRRSIDYWGQGTLVTVSS VL: DIQMTQSPSSLSASVGDRVTITCRASQDISNYLSWYQQKPGKTIKLLIYYTSRLHSGVPSRFSGSGSGTDYTFTISSLQPEDIATYFCQQGKTLPYTFGQGTKVEIKR", "values": [{"measurement": "EC50", "setting": "LAG3-ECD-His [1]", "result": 0.147, "unit": "nM"}, {"measurement": "EC50 (read off the curve)", "setting": "LAG3-ECD-His [2]", "result": "~0.1", "unit": "nM"}]}, {"binder": "20-Hu-HC+601-LC-V94L (antibody, human IgG4 S228P, kappa, V domains shown) VH: EVQLVESGGGLVQPGGSLRLSCAASGFVFSNYDMSWVRQAPGKRLEWVATISGGGGYTYYSDSVKGRFTISRDNAKNSLYLQMNSLRAEDTAVYYCASPYGHYGFEYWGQGTLVTVSS VL: DIQMTQSPSSLSASVGDRVTITCSASQDISNYLNWYQQKPGKAPKVLIYFTSSLHSGVPSRFSGSGSGTDFTLTISSLQPEDFATYYCQQYSTLPWTFGQGTKVEIKR", "values": [{"measurement": "EC50", "setting": "PD1-His [3]", "result": "0.308 nM and 0.331 nM"}, {"measurement": "Kd", "setting": "PD1-His [4]", "result": 1.59, "unit": "nM"}, {"measurement": "koff", "setting": "PD1-His [4]", "result": "4.54e-05", "unit": "s⁻¹"}, {"measurement": "kon", "setting": "PD1-His [4]", "result": 28600, "unit": "M⁻¹ s⁻¹"}, {"measurement": "binding result", "setting": "[5]", "result": "no binding"}]}, {"binder": "14-Hu (antibody, human IgG4 S228P, kappa, V domains shown, Humanized anti-PD-1, IgG4 (S228P), kappa; also called 14-Hu-HC+14-Hu-LC) VH: QVQLVQSGAEVKKPGASVKVSCKASGYSFTGYTMNWVRQAPGQGLEWIGLINPYNGDTSYNQKFKGRATVTVDKSTSTAYMELSSLRSEDTAVYYCARWRYTMDYWGQGTLVTVSS VL: DIVLTQSPASLAVSPGQRATITCRASESVDNYGNSFMNWYQQKPGQPPKPLIYFASNLESGVPARFSGSGSRTDFTLTINPVEADDTANYYCQQNNEAPPTFGQGTKVEIKR", "values": [{"measurement": "EC50", "setting": "PD1-His [3]", "result": "0.392 nM and 0.432 nM"}, {"measurement": "binding result", "setting": "[6]", "result": "no binding"}]}, {"binder": "mAb127-HC+14-Hu-LC (antibody, human IgG4 S228P, kappa, V domains shown, Hybrid antibody) VH: QVQLVQSGAEVKKPGASVKVSCKASGYTFTSEWMNWVRQAPGQGLEWMGQIFPALGSTNYNEMYEGRVTMTTDTSTSTAYMELRSLRSDDTAVYYCARGIGNYALDAMDYWGQGTLVTVSS VL: DIVLTQSPASLAVSPGQRATITCRASESVDNYGNSFMNWYQQKPGQPPKPLIYFASNLESGVPARFSGSGSRTDFTLTINPVEADDTANYYCQQNNEAPPTFGQGTKVEIKR", "values": [{"measurement": "EC50", "setting": "[7]", "result": "0.0711 nM and 0.0803 nM"}, {"measurement": "binding result", "setting": "[8]", "result": "no binding"}]}, {"binder": "14-Fab-127-IgG4 (bispecific antibody) heavy: not shown light: DIVLTQSPASLAVSPGQRATITCRASESVDNYGNSFMNWYQQKPGQPPKPLIYFASNLESGVPARFSGSGSRTDFTLTINPVEADDTANYYCQQNNEAPPTFGQGTKVEIKRTVAAPSVFIFPPSDEQLKSGTASVVCLLNNFYPREAKVQWKVDNALQSGNSQESVTEQDSKDSTYSLSSTLTLSKADYEKHKVYACEVTHQGLSSPVTKSFNRGEC", "values": [{"measurement": "EC50", "setting": "[7]", "result": 0.152, "unit": "nM"}, {"measurement": "EC50", "setting": "PD1-His [3]", "result": 0.387, "unit": "nM"}, {"measurement": "EC50", "setting": "[9]", "result": 0.278, "unit": "nM"}]}]}
